Here are results for one substance from patent US20260035456A1.

The experiment addresses CRLR/RAMP3 (human).

“hADM(22-52) (from UniProt P35318) (peptide)” came in with an IC50 (read off the curve) of 100 mg/L.
